# Values of other authors as cited in article PMC10170156.
# Target: EGFR (Homo sapiens) (UniProt P00533)
substance,measurement,value
EGF (from UniProt P01133),Kd,4 nM
